# Results as given in the RNAGym collection of RNA variant scans (doi:10.1073/pnas.2313332121).
# B1: TPR t1 (parent)
# chain: GACCAAUCUGCCCUCAGAGCUCGAGAACAUCUUCGGAUGCAGAGGAGGCAGGCUUCGGUGGCGCGAUAGCGCCAACGUCCUCAACCUCCAAUGCAUCCCACCACAUGAUGAUGCCUGAAGAGCCUUGGUUUUUUG
# Variants of: B1
# Assay: polymerase ribozyme fitness, log enrichment relative to wild type (log ratio); higher = more active; in vitro selection for triplet polymerase activity
# How it was run: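 PCR was used to build mutant libraries for each subunit of a heterodimeric triplet polymerase ribozyme, which were then transcribed. A single in vitro selection round, in triplicate, used a frozen incubation at −7 °C and recovered extended constructs by gel excision, streptavidin beads and RT-PCR. Fitness is the logarithm of genotype enrichment relative to wild-type enrichment, averaged over replicates with inverse-variance weights. The logarithm is base 2, and after Illumina sequencing only genotypes with ≥10 input reads and ≥1 read per output were kept.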
row,Variant,polymerase ribozyme fitness (log ratio)
1,C3G U109G,-5.75
2,C3G A95G C101A A111C,-2.16
3,A2U C104U,-1.41
4,C3A G39A G113A C124U,-3.14
5,A2C C11U C15U U55G G63U A90G A121G,-1.56
6,A2G G60A,-0.122
7,A2U G69A,-4.39
8,A2U G69U,-1.7
9,C3U A43C U87G,-3
10,C3A C12U G42A G44C C79U C88A A118G G120A,-1.44
11,C3G A83C,-2.39
12,A2C A100C U109A,-6.4
13,A2C U9G G61U G110A,-2.69
14,C3U A41C C70G U112C C124U,-3.32
15,C3G C102U C124A,-2.89
16,C3A C49G A75U U125A,-2.69
17,A2U C11G G120A U132A,0.742
18,C3U C34G C73U C123U,-4.72
19,C3U C15U U106G,-3.3
20,A2G C104U,0.0974
21,C3U C34G C123U,-4.64
22,A2C C4U C13U C114U C124G,-1.63
23,A2C C123A,-0.696
24,C3G C13U G45U G48A,-2.41

row,Variant,polymerase ribozyme fitness (log ratio)
1,A2C C31G C79U G117U U126A,-4.9
2,A2C C4A A84U C115G,-5.82
3,C3A A29U G63A C82A A91C C114U G128U,-3.24
4,A2G C4U G35A G77A C98U C101A,-6.32
5,A2U U7C G44C G52C C56A,-4.24
6,A2U C73U,-2.69
7,C3U C4A U14G U32G A37G A46C C49A C53U C114G U116C,-5.66
8,C3A U9A C28U C53A C94A,-4.65
9,A2C C15A G25A G71U C80U G120C G135C,-4.64
10,C3U C4A,-1.77
11,A2U C8A A41U C101U U130G,-1.84
12,C3U C13U,-0.225
13,A2C A37U C123U,-0.77
14,A2U A5G U9G C13U C64U G122A,-1.31
15,A2G A5U G71U A111U G120A,-5.48
16,A2U C72U,-2.02
17,A2U C72G,-1.72
18,C3A U9A C12A A83G,-2.57
19,A2G C34A U55A U112C,-0.554
20,A2U C3G C4U C72U G77A U92G A118U C123G G128A,-3.1
21,A2U A50G G71U A118G,-2.92
22,A2C C13G C15U C72U,-4.37
23,A2U C4A C56G U78C C79G C101U,-3.31
24,A2G C11G G61A U129A G135U,-2.91

row,Variant,polymerase ribozyme fitness (log ratio)
1,C3U C62G U106A G113A,-4.93
2,C3A G120U,-0.479
3,A2U G17A,-5.45
4,C3A U55G,-1.43
5,A2C U21A C89G,-4.49
6,C3G U9A G71U G110C,-5.18
7,A2G G47C U81G,-3.47
8,C3A C8A C62A C97U,-2.46
9,A2U C89G,-5.02
10,A2U C64U C89G,-5.12
11,A2U G10U A90C G122A,-3.13
12,A2U C34A G60A G120U U125A U132A,-3.85
13,A2C U55C C82G A91C A105U C123G,-6.66
14,A2C C11G C13G G42U A75G U81A,-4.31
15,A2G U87A U112A,1.3
16,A2G C12G G17A U54C C88U A91U C101U A105U C114G U131A,-5.89
17,A2C A37U C73U G93A G120C,-2.44
18,A2C C124A,0.652
19,C3A C85A,-3.94
20,C3A C85U,-2.76
21,C3A C12A,-1.53
22,C3A A6C A46G C49G G69C C104U,-3.86
23,A2C G117C U131C U133C,-4.66
24,A2C C3U U59C C104A,-4.21

row,Variant,polymerase ribozyme fitness (log ratio)
1,C3A G10A C13A G36U C70A U129C,-5.83
2,A2C C102A,-3.35
3,A2C A84G C99U,-6.59
4,A2C C62U,-2.03
5,C3G G120A,-1.23
6,A2U G45A C62U C115U U133A,-2.99
7,C3G U112A C115A,-2.03
8,A2U U32C C62A,-4.44
9,C3A U14G A119U G120A,-1.62
10,C3A U7A G57U G60C A83U A121C,-1.26
11,C3U C12A A91U,-2.92
12,C3G U7A C11A C40A C73U C85G,-4.89
13,A2U A5G C12U U112G,-1.79
14,C3A A6C A91U U125A,-3.02
15,C3U C8A C79U A121C,1.18
16,C3A C4A G51A G60A A84G G120U,-3.02
17,C3A G61C,-3.47
18,C3A U9A G52U C88G A91C G127U,-1.59
19,C3U C13U G120A,1.11
20,C3A U78C U87C C102U C124G U131A,-0.482
21,A2U C3G C123G,-0.606
22,A2C C13G A16U,-4.01
23,A2U C11U A27U G48U C64A C99G G113C,-6.93
24,C3U C11A,-1.47

row,Variant,polymerase ribozyme fitness (log ratio)
1,A2U A16G A27U A46G G60U U106A G110A,-5.21
2,A2G C20A G63C C114A,-3.77
3,A2U C8U C11G C72A,-0.286
4,C3U C11A G47A U87G,-2.77
5,A2G C56U,0.13
6,A2G C56G,-1.69
7,A2U G71U,-2.05
8,C3A C115A,-1.99
9,A2G G10U C88U A119U,-0.34
10,A2C G52A C79A A95U C123U G135A,-1.79
11,C3A G45U C72G U87C,-3.73
12,C3U C62G G113A C114G A121U,-4.51
13,A2G C11G U38G C82G,-4.28
14,A2G A50U U81A,0.17
15,A2C C4U G36U C73A C104U,-2.65
16,C3G C22A,-4.35
17,A2U C64U C115G C124U,-4.43
18,A2U C94U,-3.62
19,C3G C8G G10A A18U A41G G69C A121G,-4.57
20,A2C G71A U112G,-2.44
21,A2U G52C,-3.28
22,A2C G63U,-2.33
23,C3G C70G C80U G128C,-1.99
24,C3A A37U C114U,-3.95

row,Variant,polymerase ribozyme fitness (log ratio)
1,A2G C72U C88U C124A,1.45
2,C3U A26U C49U A118U,-3.26
3,A2U U21G C53U G58C C72U U129A,-1.46
4,A2G U9C G69C,-0.585
5,C3A G48U G71C C101A G127A,-3.71
6,C3A C72A A111C,-1.3
7,A2C C53U U81G,-4.15
8,C3U C13G A90U A121C C124A,-0.103
9,C3U C34A C76U G120C,-3.72
10,A2C C49G G63C A74U A75U C124A,-3.35
11,C3U C28U G71A C89A C123G U130C,-4.19
12,A2C C56U,-0.967
13,A2U U87G,-2.24
14,C3A A43U,-2.69
15,A2C C4A,-1.3
16,A2U G17C A26U G39A U59G G61U A83G C115U,-6.19
17,C3G C56A C86G C104A,-5.13
18,A2G G77A C102A C123G G128C,-3.09
19,A2C C72U G120U,-2.42
20,A2U C72A A83U C123G U126A,-0.343
21,A2U G93U,-2.62
22,C3G G36U C72G C86A C99G U112G U129C U134G,-5.02
23,A2U A5U A27G C53G U87G,-4.56
24,A2U C12A C49U,-3.6

row,Variant,polymerase ribozyme fitness (log ratio)
1,A2G U116A A121U,-0.583
2,C3U A41C G42A U78C U92G,-3.33
3,A2U G10U C15G G69U U106A,-0.732
4,A2G G39U C115A,-1.93
5,C3U C12A C82A,-1.8
6,A2C C72A,-2.14
7,C3G C8G,-0.464
8,A2U C49U,-3.77
9,A2C C20A C79U G122U U125G,-3.43
10,C3A C72U G93U A111G,-3.35
11,A2G C11A,-1.77
12,A2G G36A C49G G61U A83U G110U U129C,-4.82
13,C3G C82A,-2.49
14,C3U A43C A50G C73U,-2.2
15,C3G U7G C88G C114U,-2.56
16,A2U C13G G60U C85A,-4.99
17,C3A U116C,-2.44
18,A2U G19U G25U A26G A27U,-6.04
19,C3U C13A A29U G44C C124G U132C,-3.39
20,A2U G57U G117U,-5.98
21,A2C G44A U59A U96A U112A U129A,-2.9
22,A2C G117A,-3
23,C3U C12G A46C,-0.734
